Measured values reported in publication PMC12241602.

Assays:
[1] = molecular target: His6-MadB (class I lantibiotic dehydratase MadB) (Clostridium sp. Maddingley); test: nanoDSF; 2 uM His6-MadB with or without 10 uM ligand peptide, 10 min at room temperature, 50 mM HEPES, 500 mM NaCl, pH 7.5, ramp 1 °C/min from 25 to 95 °C, intrinsic fluorescence 330/350 nm
[2] = molecular target: His6-MadB (class I lantibiotic dehydratase MadB) (Clostridium sp. Maddingley); test: SEC-MALS; 100 uL of 20 uM MadB on Superdex 200 10/300 Increase, 50 mM HEPES pH 8.0, 200 mM NaCl, 0.5 mL/min
[3] = molecular target: His6-MadB (class I lantibiotic dehydratase MadB) (Clostridium sp. Maddingley); test: cryo-EM structure; single particle cryo-EM of purified apo MadB and of MadB with MadL3, C2 symmetry imposed

stoichiometry N [2]	stoichiometry N [3]	Substance	Tm shift [1]
		MadL1 (isolated leader peptide of maddinglicin A)	1.8 °C
2	2	His6-MadB (class I lantibiotic dehydratase MadB) (enzyme)	
